According to the nanobody polyreactivity screen of Harvey et al. (2022):

Assay: yeast display, Sf9 membrane polyspecificity reagent, FACS + sequencing; frameworks hold sequencing errors
Summary of the method: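 Galactose-induced (36–48 hours) yeast carrying a synthetic nanobody display library were exposed to 10% biotinylated, detergent-solubilized Sf9 membrane reagent at 4 °C for 1 hour. FACS followed streptavidin microbead enrichment, using low and high (top ~1%) gates for expression (anti-HA) and reagent binding (streptavidin). Colony PCR, MiSeq 2 × 250 sequencing and CDR-length filtering followed. Labels for polyreactivity reflect the gate of origin.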

Row | Sequence | polyreactivity (PSR sort gate)
1 | QVHLVESVGGLVQAGGSLRLSSAASGSTFGYYAMGWYRQAPGKERELVAAINARGGSTYYADSVKGRFTISRDNAKNTVYLQMNSLKPEDTAVYYCAAVHIYSYGIYDYWGQGTQVTVSS | high polyreactivity
2 | QVHLVESVGRLVQEGGSLRLICAASAFNIYTYAMGWSRQAPGKEREMVAAISKSGGSTYSADSVKGRFTISRDNAKNTVYVQMNSLKPVDTAVYYCAVSDARHLGSGRYYWCQGTQVTVSS | low polyreactivity
3 | QVHLVETGGALVQAGGSLRISCAASGLTFLDYAMGWYRQSTGKERELGAAITSGGSTNYADSVKGRFTISGDNATTTVYFQMISLKPEDTAVYYCATDLEVSAYDYWGQGNQVTVSS | low polyreactivity
4 | QVHLVETGGCLVQAGGSLRLSCAASGRTFYQNTMGWYRQAPGKERELVAAISSGGSTHYADSVKGRFTISRDNAKNTVYLQMNSLKPEDTAVYYCAKRYFYSYRYGYWGQGTQVTVSS | high polyreactivity
5 | QVHLVETGGGLVQAGGSLRLSCAASGITFDQYAMGWYRQAPGKERELVAAITGSGGNTYYADSVKGRFTISRDNAKNTVYLQMNSLKPEDTAVYSCGAAVGRARDYWGQGTQVTVSS | low polyreactivity
6 | QVHLVQSGGGIDQAGGSLRLSCAASGSTYVVNTMGWYRQAPGKDRELVAANTQSGGSTFYADSVKGRFTISRDNAKNTVYLHMTSLKAEDTAVYYCNAGDFEGAVVVFIQHGGYYWGQGTQVTVSS | low polyreactivity
7 | QVHLVVSGGGLVQAGGSLRLSCAAYGRTFRIYAMGWYRQAPGKDRELVARITKRAGSTYYADSVKGRFTISRDNAKNTVYLQMNRLKPEDTSVYYCAADVRVQYRQDLTYDYWGQGTQVTVSS | high polyreactivity
8 | QVHLVVSWGGLVQAGGSLRLSCSASGITFKRYAMGWYRQSRGNERELVAAINWNGCGTYYADSVKGRFTISRDNAKNTVYLQMNSLKPEDTAVYYCAAGLAYWYWRGYDYWGQGTQVTVSS | high polyreactivity
9 | QVHRVESGGGLVQAGASLRLSCAASGIIFDTYAMGCYRQAPGKEREIVAAITWNGGSTYYADSVKGRFTISRDNAKNPVYLQMNSLKPEDTPVYYCAKLPRTLTEYGYKGYYWGQGTQVTVSS | low polyreactivity
10 | QVHVVESGGGLVQAGGSLGLSCAASGITFTAYAMGWYRQAPGKERELVATINSTGITNYADSVKGRFTISRDNSKNTVFLQMNSLKPEDTAVYYCAADLLDISSYDGMDYWGQGTQVTVSS | low polyreactivity
11 | QVHVVESGGGLVQAGGSLRLSCAASGRTFYGYAMGWYRQAPGKERELVAGITSGGNTNYADSVKGRFTISRDNAKNTVYLQMNSLKPEDTAVYYCAADRYSFRGDYYWGQGTQVTVSS | low polyreactivity
12 | QVKIVESGGGLVQAGGSLRLSCAATGITFAWYAMGWYRQAPGKERELVAAITWSGDSTYYADSVKGRFTISRDNAKNTVYLQMKSLKPEDTAVYYCAAEGLVFWFGTPYDYWGQGTQVTVSS | high polyreactivity
13 | QVKLEESAGGLVQSGGSLRISCAASGSTLVSNAMGWYRQAPGQERELVADNSLSGGSTYYADSVKGRFTISRDYAKNTVYLQMNSLKPEDTEVYYCARVAPSSGVRWYYYWGQGTQVTVSS | high polyreactivity
14 | QVKLEESGGGLVQEGGSLRISCAASVRIFGNYSMGWSRQAPGKEMELVAAIDLSGDSTYYADSVKGRFTISRDNAKNTVYLQMNSLKPEDTAVYYCAATDWFSEYYWGQATQVTVSS | low polyreactivity
15 | QVKLLDSGGGLVQAGGSLRLSCAASGRNFYYYAMGWYRQAPGNERELVAAISSCGSTYADSVKGRFTISRDNAKTTVYLQMNSLKPEDTAVYYCAAYLSRLGPSGYYYWGQGTQVTVSS | high polyreactivity
16 | QVKLLESGGGLVQAGGSLRLTCAASGFIFRRYTMGWYRHAPGEEREWVAAISITGSRTYYADSVKGRFTISPDNAKNNVYLQMNSLKPEDTAVYYCAADPDKSSAGDFDYWGHGTQVTVSS | high polyreactivity

Row | Sequence | polyreactivity (PSR sort gate)
17 | QVKLLESGGGLVQSGGSLRLSCAAYAIIFRWYTMGGYRQAPGKERQLVAAISTSTGSTYYADSVKGRFTISRDNAKNTVYLQMNSLKPEDTAVYYCAADYAYWNYESYYWGQGTQVTVSS | high polyreactivity
18 | QVKLQESGDGLVQAGGSLRLSSAASGTIFSDYGMGGYRQAPGKERELLAGISDGCNTNYTDSVKGRFTISRDNAHRVSADEQPETGGYRGVLLRGSERWLLFFVYWGQGTQVTVSS | high polyreactivity
19 | QVKLVASGGGLVQEGGSLRLSCAASGRIFGNYAMGWYRQAPGKERELVAAIDLSGDSTYYADSVKGRFTISRDNAKNTVYLQMNSLKPEDTAVYYCAADPDLLWEYSDGYYGGDGGYWGQGTQVTVSS | low polyreactivity
20 | QVKLVDSGGGLVQAGGSLRLSCAASGNIFYRYAMGWYRQAPGKERELVAAISGNSGNTYYADSVKGRFTISRDNAKNTVYLQMNSLKPDDTAVYYCAAERRAFGHYSWGQGTQVTVSS | high polyreactivity
21 | QVKLVDSGGGLVQAGGSLRLSCAASGSIFGAYAMGWYRQAHGKERELVAPITLRDGSTYYADSVKGRFTISRDNAKNTVYLQLNSLKPEDTAVYYCATYYSAINYGWSKTILYDYWGQGTQVTVSS | low polyreactivity
22 | QVKLVESAGCLVQAGGSLRLSCAASGRIFRRYAMGWYRQSTGKESELVAAISSRGGLTYYADSVKGRFTISRDNAKNTVYLLMNSLKTEDTAVYYCAAYYFVTETYGPYEYWGQGTQVTVSS | high polyreactivity
23 | QVKLVESCGGLVQAGGSLRLSCAASGYISSFNTKGWYRQAPGKERELVAAITRDGSTYYADSVKGRFTISRDNAKNSVYLQMNSLKPEYTAVYYCAARGWYATWLYYYWGQGSQVTVSS | high polyreactivity
24 | QVKLVESGGALVQAGCSLRLSCAASARTFPVYAMGWYRQAPGKERELVAAIRYSAGSTYYADSVKGRFTISRDNAKITVYLQMNSLKPEDSSVSYCARTTPTGRQYRRYDYWGQGTQLTVSS | low polyreactivity
25 | QVKLVESGGCLVQEGGSHRLSCAASGYIFDAYAMGWYRQAPGQERELVAAIDIGGSTYYADSVKGRFTISRDNAKNTVYLQMNSLKPEDTAVYYCAVWFYFDQWDYAREYWGQGTQVTVSS | low polyreactivity
26 | QVKLVESGGCLVQSGGSLRLSCADYRSIFWNNSMGWYRQATGKEWELGAGISSAGSTNYSDSVKGRFTISRDNAKNTVYLQMNSLKPEDTAVYYCAAEQYRYGIRRRHYDYWGQGTQVTLSS | low polyreactivity
27 | QVKLVESGGGIVQAGGSLRLSCAASGRTFGRNAMGWYRQAPGKERELVASITKRGGSTYYADSVKGRFTISRDNAKDTVYLQMNSLKPEDTAVYYCAVEAYDYWGQGTQVTVSS | high polyreactivity
28 | QVKLVESGGGLDQAGGSLRLSCAASGSTILQTAMGGYRQAPGKARELVASISRGGSTNYADSVKGRFTISRDNAKTSVYLQMNSLKPEDTEVYFCATRSRRSASPVVYHAYYYWGQGTHVTVSS | high polyreactivity
29 | QVKLVESGGGLVQAGASLRLSCAASGIISYGNAMGRYRQAPGKERELVASISGISGSTYYADSVKGRFTISRDNAKNTVYLQMNSLKPEDTAVYYCNARYPTYRASYHGDYWGQGTQVTVSS | low polyreactivity
30 | QVKLVESGGGLVQAGCSLRLSCAASGFIFRSYAMGWYRQAPRKERELVAVISRRGVNTHYADSVKGRFTISRDNAKNTVYLQMNSLKPEDTAVYYCAKGLSALGDYWGQGTQVTVSS | high polyreactivity
31 | QVKLVESGGGLVQAGGSLRFSCAASGSTFTKNARGWYRQAPGKERELVAGISRSGGNTYYADSVMGRFTISRDNSKNTVYLQLNRLKPEDTAVSYCAKVVRGIDSNLDDYWGQGTQVTVSS | high polyreactivity
32 | QVKLVESGGGLVQAGGSLRFTCAASGRTFGSNAMGWYRQAPGKERELVAVITTSGGSTYYADSVKGRFTISRDNAKNTVYLQMISLKPEDTAVYSCAKRVATGYKSYGYGYWGQGTQVTVSS | high polyreactivity
